From patent publication US20250218531A1 (ABSCI, published 2025)
Changes are numbered by the printed parent chain.

B1: Multi-step trastuzumab HCDR3 variant ARSGGSSYYYYDY (SEQ ID NO: 508) (Fab, V domains shown)
VH: EVQLVESGGGLVQPGGSLRLSCAASGFNIKDTYIHWVRQAPGKGLEWVARIYPTNGYTRYADSVKGRFTISADTSKNTAYLQMNSLRAEDTAVYYCARSGGSSYYYYDYWGQGTLVTVSS
VL: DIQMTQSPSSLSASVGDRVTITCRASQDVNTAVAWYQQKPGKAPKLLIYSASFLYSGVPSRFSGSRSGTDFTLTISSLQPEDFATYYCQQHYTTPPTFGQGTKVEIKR
B2: De novo trastuzumab HCDR2|3 variant IYPSNGYT / ARSGYYYSYSFDY (Fab, V domains shown)
VH: B1 VH with T54S, G101Y, S102Y, S103Y, Y104S, Y106S, Y107F
VL: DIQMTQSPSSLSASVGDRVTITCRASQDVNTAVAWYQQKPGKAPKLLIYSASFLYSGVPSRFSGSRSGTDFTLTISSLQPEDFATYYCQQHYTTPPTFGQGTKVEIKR
B3: De novo trastuzumab HCDR2|3 variant IYPSSGYT / ASSGGRYYYYYDY (Fab, V domains shown)
VH: B1 VH with T54S, N55S, R98S, S102R, S103Y
VL: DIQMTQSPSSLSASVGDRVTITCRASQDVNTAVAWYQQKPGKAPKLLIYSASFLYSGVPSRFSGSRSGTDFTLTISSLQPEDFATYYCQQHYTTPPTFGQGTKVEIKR
B4: De novo trastuzumab HCDR2|3 variant IYPSNGYT / ARYRGSSSYYFDY (Fab, V domains shown)
VH: B1 VH with T54S, S99Y, G100R, Y104S, Y107F
VL: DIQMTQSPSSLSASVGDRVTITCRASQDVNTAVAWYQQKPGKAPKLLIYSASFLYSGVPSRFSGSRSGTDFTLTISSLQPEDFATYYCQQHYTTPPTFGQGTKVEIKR
B5: Multi-step trastuzumab HCDR3 variant SRYGYSGYGAFDY (SEQ ID NO: 521) (Fab, V domains shown)
VH: B1 VH with A97S, S99Y, G101Y, S103G, Y105G, Y106A, Y107F
VL: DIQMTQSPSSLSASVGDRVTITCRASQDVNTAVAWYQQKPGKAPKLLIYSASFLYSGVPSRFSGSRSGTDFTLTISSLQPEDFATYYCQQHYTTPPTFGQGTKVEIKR
B6: Multi-step trastuzumab HCDR3 variant ARYGGSYFYYYSY (SEQ ID NO: 517) (Fab, V domains shown)
VH: B1 VH with S99Y, S103Y, Y104F, D108S
VL: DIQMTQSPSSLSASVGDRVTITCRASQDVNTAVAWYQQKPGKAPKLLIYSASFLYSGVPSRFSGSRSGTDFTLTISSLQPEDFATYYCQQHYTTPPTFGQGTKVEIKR
B7: Multi-step trastuzumab HCDR3 variant ASSGGSSSYSYYY (SEQ ID NO: 513) (Fab, V domains shown)
VH: B1 VH with R98S, Y104S, Y106S, D108Y
VL: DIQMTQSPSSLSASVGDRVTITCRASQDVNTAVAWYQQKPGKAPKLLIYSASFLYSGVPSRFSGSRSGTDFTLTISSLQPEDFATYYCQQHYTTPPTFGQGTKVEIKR
B8: Multi-step trastuzumab HCDR3 variant ARSSGSSYYGFDY (SEQ ID NO: 526) (Fab, V domains shown)
VH: B1 VH with G100S, Y106G, Y107F
VL: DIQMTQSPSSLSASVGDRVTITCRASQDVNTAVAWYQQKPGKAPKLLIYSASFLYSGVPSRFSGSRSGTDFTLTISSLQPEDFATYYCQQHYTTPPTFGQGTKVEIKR
B9: Multi-step trastuzumab HCDR3 variant ARDGGGGVYAFTY (SEQ ID NO: 525) (Fab, V domains shown)
VH: B1 VH with S99D, S102G, S103G, Y104V, Y106A, Y107F, D108T
VL: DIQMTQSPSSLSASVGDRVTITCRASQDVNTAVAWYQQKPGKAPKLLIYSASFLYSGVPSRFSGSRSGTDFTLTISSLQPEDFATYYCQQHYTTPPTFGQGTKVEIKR
B10: Multi-step trastuzumab HCDR3 variant ARYSGSSYYYYDY (SEQ ID NO: 536) (Fab, V domains shown)
VH: B1 VH with S99Y, G100S
VL: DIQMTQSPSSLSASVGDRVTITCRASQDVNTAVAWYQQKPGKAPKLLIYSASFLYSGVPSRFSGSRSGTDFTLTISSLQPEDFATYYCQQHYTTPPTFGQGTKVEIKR
B11: De novo trastuzumab HCDR2|3 variant IYPSNGYT / ARYGGSYAYYFYY (Fab, V domains shown)
VH: B1 VH with T54S, S99Y, S103Y, Y104A, Y107F, D108Y
VL: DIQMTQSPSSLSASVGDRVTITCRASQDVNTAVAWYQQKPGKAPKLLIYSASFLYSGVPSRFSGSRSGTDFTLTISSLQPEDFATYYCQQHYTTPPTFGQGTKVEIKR
notes: also called AI Design 8
B12: Multi-step trastuzumab HCDR3 variant ARSGGYYHYGFVY (SEQ ID NO: 544) (Fab, V domains shown)
VH: B1 VH with S102Y, S103Y, Y104H, Y106G, Y107F, D108V
VL: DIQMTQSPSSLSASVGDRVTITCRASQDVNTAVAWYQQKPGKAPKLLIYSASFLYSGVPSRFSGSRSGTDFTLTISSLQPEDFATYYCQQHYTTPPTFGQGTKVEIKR
B13: Multi-step trastuzumab HCDR3 variant ARYSSSGGSAFDY (SEQ ID NO: 542) (Fab, V domains shown)
VH: B1 VH with S99Y, G100S, G101S, S103G, Y104G, Y105S, Y106A, Y107F
VL: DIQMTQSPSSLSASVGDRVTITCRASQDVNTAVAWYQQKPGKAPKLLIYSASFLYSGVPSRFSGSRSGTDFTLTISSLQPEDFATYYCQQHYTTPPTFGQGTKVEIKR
B14: Multi-step trastuzumab HCDR3 variant ARVGGRGYYAYDY (SEQ ID NO: 552) (Fab, V domains shown)
VH: B1 VH with S99V, S102R, S103G, Y106A
VL: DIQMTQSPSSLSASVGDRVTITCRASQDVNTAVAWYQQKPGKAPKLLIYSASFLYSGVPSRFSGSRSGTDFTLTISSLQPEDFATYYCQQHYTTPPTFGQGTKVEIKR
B15: Multi-step trastuzumab HCDR3 variant ARDGGRGRYAMDY (SEQ ID NO: 541) (Fab, V domains shown)
VH: B1 VH with S99D, S102R, S103G, Y104R, Y106A, Y107M
VL: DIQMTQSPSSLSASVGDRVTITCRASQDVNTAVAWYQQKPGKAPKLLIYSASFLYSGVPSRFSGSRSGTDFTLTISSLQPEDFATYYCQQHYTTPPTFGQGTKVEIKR
B16: Multi-step trastuzumab HCDR3 variant ARYYGSSSYYFAY (SEQ ID NO: 75) (Fab, V domains shown)
VH: B1 VH with S99Y, G100Y, Y104S, Y107F, D108A
VL: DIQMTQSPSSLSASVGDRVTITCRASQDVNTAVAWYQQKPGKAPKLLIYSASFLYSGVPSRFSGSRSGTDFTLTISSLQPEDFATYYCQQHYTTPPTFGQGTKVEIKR
notes: also called AI Design 9
B17: Multi-step trastuzumab HCDR3 variant SRYSYSGGGSFDY (SEQ ID NO: 537) (Fab, V domains shown)
VH: B1 VH with A97S, S99Y, G100S, G101Y, S103G, Y104G, Y105G, Y106S, Y107F
VL: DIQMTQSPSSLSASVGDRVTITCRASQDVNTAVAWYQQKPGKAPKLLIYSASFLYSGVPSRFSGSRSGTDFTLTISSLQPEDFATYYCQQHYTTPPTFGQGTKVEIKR
B18: Multi-step trastuzumab HCDR3 variant ARSGGYYTYGFDY (SEQ ID NO: 548) (Fab, V domains shown)
VH: B1 VH with S102Y, S103Y, Y104T, Y106G, Y107F
VL: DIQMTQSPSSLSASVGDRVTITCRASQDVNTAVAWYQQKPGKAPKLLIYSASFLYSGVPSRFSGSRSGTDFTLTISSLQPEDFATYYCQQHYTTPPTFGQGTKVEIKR
B19: Multi-step trastuzumab HCDR3 variant ARDGGSSSYSYSY (SEQ ID NO: 535) (Fab, V domains shown)
VH: B1 VH with S99D, Y104S, Y106S, D108S
VL: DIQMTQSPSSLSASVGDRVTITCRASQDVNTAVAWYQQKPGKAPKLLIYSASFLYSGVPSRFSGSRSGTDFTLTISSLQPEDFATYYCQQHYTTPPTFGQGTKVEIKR
B20: Multi-step trastuzumab HCDR3 variant ARYGGSSNYYYDY (SEQ ID NO: 518) (Fab, V domains shown)
VH: B1 VH with S99Y, Y104N
VL: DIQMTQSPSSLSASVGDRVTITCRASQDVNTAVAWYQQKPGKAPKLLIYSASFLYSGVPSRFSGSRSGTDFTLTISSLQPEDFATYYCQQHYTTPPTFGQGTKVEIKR
B21: Multi-step trastuzumab HCDR3 variant ARYGGSSYYYFDY (SEQ ID NO: 528) (Fab, V domains shown)
VH: B1 VH with S99Y, Y107F
VL: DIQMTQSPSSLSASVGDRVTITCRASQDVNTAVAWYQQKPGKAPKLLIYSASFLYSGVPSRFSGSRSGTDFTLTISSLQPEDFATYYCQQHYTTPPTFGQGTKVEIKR
B22: Multi-step trastuzumab HCDR3 variant ARYGGGYYYYYDY (SEQ ID NO: 531) (Fab, V domains shown)
VH: B1 VH with S99Y, S102G, S103Y
VL: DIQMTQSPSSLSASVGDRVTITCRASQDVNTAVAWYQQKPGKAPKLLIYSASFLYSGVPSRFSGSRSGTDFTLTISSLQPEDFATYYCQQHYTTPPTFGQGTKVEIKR
B23: De novo trastuzumab HCDR2|3 variant IYPSNGYT / ARSSGYYSYSYDY (Fab, V domains shown)
VH: B1 VH with T54S, G100S, S102Y, S103Y, Y104S, Y106S
VL: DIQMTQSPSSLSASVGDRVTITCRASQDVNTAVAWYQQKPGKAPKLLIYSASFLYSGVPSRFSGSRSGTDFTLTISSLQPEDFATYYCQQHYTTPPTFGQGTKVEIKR
B24: Multi-step trastuzumab HCDR3 variant ARYGGDYYYYYDY (SEQ ID NO: 527) (Fab, V domains shown)
VH: B1 VH with S99Y, S102D, S103Y
VL: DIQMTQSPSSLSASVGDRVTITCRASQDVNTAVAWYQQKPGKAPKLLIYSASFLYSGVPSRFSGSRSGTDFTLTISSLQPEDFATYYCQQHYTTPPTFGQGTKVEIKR
B25: Multi-step trastuzumab HCDR3 variant ARVGGYGYYSYDY (SEQ ID NO: 539) (Fab, V domains shown)
VH: B1 VH with S99V, S102Y, S103G, Y106S
VL: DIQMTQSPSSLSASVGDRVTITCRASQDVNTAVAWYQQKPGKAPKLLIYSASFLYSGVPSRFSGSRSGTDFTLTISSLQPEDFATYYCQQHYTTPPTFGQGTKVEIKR
B26: Multi-step trastuzumab HCDR3 variant ARYRGRGFYSFDY (SEQ ID NO: 532) (Fab, V domains shown)
VH: B1 VH with S99Y, G100R, S102R, S103G, Y104F, Y106S, Y107F
VL: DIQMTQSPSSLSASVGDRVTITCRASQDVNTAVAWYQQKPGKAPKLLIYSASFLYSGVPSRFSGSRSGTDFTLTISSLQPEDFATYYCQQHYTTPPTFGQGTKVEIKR
B27: De novo trastuzumab HCDR1|2|3 variant GFNVSSSY / IYPENGST / SRYSYYGGYAFDY (Fab, V domains shown)
VH: EVQLVESGGGLVQPGGSLRLSCAASGFNVSSSYIHWVRQAPGKGLEWVARIYPENGSTRYADSVKGRFTISADTSKNTAYLQMNSLRAEDTAVYYCSRYSYYGGYAFDYWGQGTLVTVSS
VL: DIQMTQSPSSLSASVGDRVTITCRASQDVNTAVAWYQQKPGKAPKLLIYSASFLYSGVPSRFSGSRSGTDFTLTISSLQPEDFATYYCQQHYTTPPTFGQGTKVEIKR
notes: also called AI Design 1

Molecular target: human epidermal growth factor receptor 2 (HER2) extracellular domain (human, UniProt P04626 23-629)
Assay: SPR, Fab format

Binder	Kd [nM]	log(KD (M)) [log M]
B1	1070	-5.97
B2	348	-6.46
B3	591	-6.23
B4	907	-6.04
B5	1050	-5.98
B6	7.31	-8.14
B7	1720	-5.76
B8	668	-6.18
B9	364	-6.44
B10	423	-6.37
B11	18.6	-7.73
B12	228	-6.64
B13	1990	-5.7
B14	2290	-5.64
B15	402	-6.4
B16	60.6	-7.22
B17	362	-6.44
B18	338	-6.47
B19	146	-6.83
B20	441	-6.36
B21	97.2	-7.01
B22	57.6	-7.24
B23	230	-6.64
B24	57	-7.24
B25	169	-6.77
B26	22	-7.66
B27	225	-6.65
